Our source for the Kd values is article PMC8319318 (2021).

The experiment has as its target actin filament (skeletal muscle actin) (Oryctolagus cuniculus, UniProt P68135). The experiment is described as follows: TIRF microscopy (steady-state fluorescence density).

B1: anillin (protein)
chain: MDPFTEKLLERTRARRENLQRKMAERPTAAPRSMTHAKRARQPLSEASNQQPLSGGEEKSCTKPSPSKKRCSDNTEVEVSNLENKQPVESTSAKSCSPSPVSPQVQPQAADTISDSVAVPASLLGMRRGLNSRLEATAASSVKTRMQKLAEQRRRWDNDDMTDDIPESSLFSPMPSEEKAASPPRPLLSNASATPVGRRGRLANLAATICSWEDDVNHSFAKQNSVQEQPGTACLSKFSSASGASARINSSSVKQEATFCSQRDGDASLNKALSSSADDASLVNASISSSVKATSPVKSTTSITDAKSCEGQNPELLPKTPISPLKTGVSKPIVKSTLSQTVPSKGELSREICLQSQSKDKSTTPGGTGIKPFLERFGERCQEHSKESPARSTPHRTPIITPNTKAIQERLFKQDTSSSTTHLAQQLKQERQKELACLRGRFDKGNIWSAEKGGNSKSKQLETKQETHCQSTPLKKHQGVSKTQSLPVTEKVTENQIPAKNSSTEPKGFTECEMTKSSPLKITLFLEEDKSLKVTSDPKVEQKIEVIREIEMSVDDDDINSSKVINDLFSDVLEEGELDMEKSQEEMDQALAESSEEQEDALNISSMSLLAPLAQTVGVVSPESLVSTPRLELKDTSRSDESPKPGKFQRTRVPRAESGDSLGSEDRDLLYSIDAYRSQRFKETERPSIKQVIVRKEDVTSKLDEKNNAFPCQVNIKQKMQELNNEINMQQTVIYQASQALNCCVDEEHGKGSLEEAEAERLLLIATGKRTLLIDELNKLKNEGPQRKNKASPQSEFMPSKGSVTLSEIRLPLKADFVCSTVQKPDAANYYYLIILKAGAENMVATPLASTSNSLNGDALTFTTTFTLQDVSNDFEINIEVYSLVQKKDPSGLDKKKKTSKSKAITPKRLLTSITTKSNIHSSVMASPGGLSAVRTSNFALVGSYTLSLSSVGNTKFVLDKVPFLSSLEGHIYLKIKCQVNSSVEERGFLTIFEDVSGFGAWHRRWCVLSGNCISYWTYPDDEKRKNPIGRINLANCTSRQIEPANREFCARRNTFELITVRPQREDDRETLVSQCRDTLCVTKNWLSADTKEERDLWMQKLNQVLVDIRLWQPDACYKPIGKP
modifications: anillin C-terminal GFP tag; F-actin stabilised with biotin-phalloidin
On to B1, for which the Kd – broadly, a measure of binding affinity in units of concentration – came out at 7.82 nM.
